Assay results published in patent publication US20260008815A1, “CYCLIC PEPTIDE OR SALT THEREOF, AND USES THEREOF” (FUJIFILM Corporation, priority 2023, published 2026).
Bridge positions count the residues as written; N and C are the ends. Ends that are not written are not given here. COCH2 = acetyl group that carries the bridge

Target: T1, Recombinant Human FGFR2 alpha (IIIc) Fc Chimera Protein (Homo sapiens, UniProt P21802)
T1 construct: Fc (chimera); purchased R&D systems 712-FR-050
Test: ELISA binding affinity of enzymatically synthesized peptide to FGFR
Conditions: ELISA luminescence signal at 10 nmol/L peptide, SEQ ID NO: 47 at 10 nmol/L standardized to 1; enzyme synthesis product
Outline: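 FGFR2 alpha (IIIc) Fc chimera (5 ng/well) was immobilized, and Myc-tagged peptide was bound 3 h at room temperature, then detected with anti-Myc antibody (2 h) and chemiluminescent substrate. Signal was corrected against FGFR-free wells. Score A–D was the luminescence at 10 nmol/L peptide, normalized to cyclic peptide SEQ ID NO: 47.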

T1 sequence (P21802 with tags, fused parts or gaps limits assumed): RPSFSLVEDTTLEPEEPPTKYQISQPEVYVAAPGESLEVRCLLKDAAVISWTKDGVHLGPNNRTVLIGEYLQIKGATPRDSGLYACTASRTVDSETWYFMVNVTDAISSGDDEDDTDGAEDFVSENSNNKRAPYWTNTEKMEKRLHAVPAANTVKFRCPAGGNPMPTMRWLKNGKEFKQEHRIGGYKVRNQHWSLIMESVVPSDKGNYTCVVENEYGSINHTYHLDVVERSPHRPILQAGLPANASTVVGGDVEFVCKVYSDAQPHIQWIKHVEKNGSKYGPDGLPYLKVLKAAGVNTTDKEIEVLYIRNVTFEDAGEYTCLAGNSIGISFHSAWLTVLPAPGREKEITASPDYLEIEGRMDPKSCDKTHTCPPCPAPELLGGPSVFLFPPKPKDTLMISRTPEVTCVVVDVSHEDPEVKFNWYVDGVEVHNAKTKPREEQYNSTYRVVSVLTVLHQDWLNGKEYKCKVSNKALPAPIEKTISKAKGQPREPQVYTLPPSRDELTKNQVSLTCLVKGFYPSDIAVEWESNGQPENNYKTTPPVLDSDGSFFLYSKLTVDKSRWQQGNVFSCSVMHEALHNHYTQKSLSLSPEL

Substance	Evaluation result of binding affinity to FGFR
175 (YCEQNYLDPEQYQYFIYFK(COCH2)Y; thioether 2-19 (inferred)) [compound 175]	A (0.7 or more)
176 (YCESNYLDPEQYQYFIYFK(COCH2)Y; thioether 2-19 (inferred)) [compound 176]	A (0.7 or more)
177 (YCETNYLDPEQYQYFIYFK(COCH2)Y; thioether 2-19 (inferred)) [compound 177]	A (0.7 or more)
178 (YCEDNYLDPEQYQYFIYFK(COCH2)Y; thioether 2-19 (inferred)) [compound 178]	A (0.7 or more)
179 (YCERNYLDPEQYQYFIYFK(COCH2)Y; thioether 2-19 (inferred)) [compound 179]	A (0.7 or more)
180 (YCEHNYLDPEQYQYFIYFK(COCH2)Y; thioether 2-19 (inferred)) [compound 180]	A (0.7 or more)
181 (YCEEGYLDPEQYQYFIYFK(COCH2)Y; thioether 2-19 (inferred)) [compound 181]	B (0.5 or more and less than 0.7)
182 (YCEEWYLDPEQYQYFIYFK(COCH2)Y; thioether 2-19 (inferred)) [compound 182]	C (0.1 or more and less than 0.5)
183 (YCEEQYLDPEQYQYFIYFK(COCH2)Y; thioether 2-19 (inferred)) [compound 183]	C (0.1 or more and less than 0.5)
184 (YCEESYLDPEQYQYFIYFK(COCH2)Y; thioether 2-19 (inferred)) [compound 184]	C (0.1 or more and less than 0.5)
185 (YCEETYLDPEQYQYFIYFK(COCH2)Y; thioether 2-19 (inferred)) [compound 185]	C (0.1 or more and less than 0.5)
186 (YCEENLLDPEQYQYFIYFK(COCH2)Y; thioether 2-19 (inferred)) [compound 186]	C (0.1 or more and less than 0.5)
187 (YCEENFLDPEQYQYFIYFK(COCH2)Y; thioether 2-19 (inferred)) [compound 187]	A (0.7 or more)
188 (YCEENWLDPEQYQYFIYFK(COCH2)Y; thioether 2-19 (inferred)) [compound 188]	A (0.7 or more)
189 (YCEENNLDPEQYQYFIYFK(COCH2)Y; thioether 2-19 (inferred)) [compound 189]	B (0.5 or more and less than 0.7)
190 (YCEENQLDPEQYQYFIYFK(COCH2)Y; thioether 2-19 (inferred)) [compound 190]	C (0.1 or more and less than 0.5)
191 (YCEENSLDPEQYQYFIYFK(COCH2)Y; thioether 2-19 (inferred)) [compound 191]	C (0.1 or more and less than 0.5)
192 (YCEENDLDPEQYQYFIYFK(COCH2)Y; thioether 2-19 (inferred)) [compound 192]	C (0.1 or more and less than 0.5)
193 (YCEENRLDPEQYQYFIYFK(COCH2)Y; thioether 2-19 (inferred)) [compound 193]	C (0.1 or more and less than 0.5)
194 (YCEENHLDPEQYQYFIYFK(COCH2)Y; thioether 2-19 (inferred)) [compound 194]	A (0.7 or more)
195 (YCEENYIDPEQYQYFIYFK(COCH2)Y; thioether 2-19 (inferred)) [compound 195]	A (0.7 or more)
196 (YCEENYVDPEQYQYFIYFK(COCH2)Y; thioether 2-19 (inferred)) [compound 196]	A (0.7 or more)
197 (YCEENYFDPEQYQYFIYFK(COCH2)Y; thioether 2-19 (inferred)) [compound 197]	A (0.7 or more)
198 (YCEENYYDPEQYQYFIYFK(COCH2)Y; thioether 2-19 (inferred)) [compound 198]	A (0.7 or more)
199 (YCEENYWDPEQYQYFIYFK(COCH2)Y; thioether 2-19 (inferred)) [compound 199]	A (0.7 or more)
200 (YCEENYNDPEQYQYFIYFK(COCH2)Y; thioether 2-19 (inferred)) [compound 200]	C (0.1 or more and less than 0.5)
201 (YCEENYQDPEQYQYFIYFK(COCH2)Y; thioether 2-19 (inferred)) [compound 201]	A (0.7 or more)

Substance	Evaluation result of binding affinity to FGFR
202 (YCEENYSDPEQYQYFIYFK(COCH2)Y; thioether 2-19 (inferred)) [compound 202]	B (0.5 or more and less than 0.7)
203 (YCEENYTDPEQYQYFIYFK(COCH2)Y; thioether 2-19 (inferred)) [compound 203]	A (0.7 or more)
204 (YCEENYEDPEQYQYFIYFK(COCH2)Y; thioether 2-19 (inferred)) [compound 204]	C (0.1 or more and less than 0.5)
205 (YCEENYRDPEQYQYFIYFK(COCH2)Y; thioether 2-19 (inferred)) [compound 205]	A (0.7 or more)
206 (YCEENYHDPEQYQYFIYFK(COCH2)Y; thioether 2-19 (inferred)) [compound 206]	A (0.7 or more)
207 (YCEENYLGPEQYQYFIYFK(COCH2)Y; thioether 2-19 (inferred)) [compound 207]	A (0.7 or more)
208 (YCEENYLLPEQYQYFIYFK(COCH2)Y; thioether 2-19 (inferred)) [compound 208]	C (0.1 or more and less than 0.5)
209 (YCEENYLIPEQYQYFIYFK(COCH2)Y; thioether 2-19 (inferred)) [compound 209]	C (0.1 or more and less than 0.5)
210 (YCEENYLVPEQYQYFIYFK(COCH2)Y; thioether 2-19 (inferred)) [compound 210]	C (0.1 or more and less than 0.5)
211 (YCEENYLFPEQYQYFIYFK(COCH2)Y; thioether 2-19 (inferred)) [compound 211]	A (0.7 or more)
212 (YCEENYLYPEQYQYFIYFK(COCH2)Y; thioether 2-19 (inferred)) [compound 212]	A (0.7 or more)
213 (YCEENYLWPEQYQYFIYFK(COCH2)Y; thioether 2-19 (inferred)) [compound 213]	B (0.5 or more and less than 0.7)
214 (YCEENYLNPEQYQYFIYFK(COCH2)Y; thioether 2-19 (inferred)) [compound 214]	A (0.7 or more)
215 (YCEENYLQPEQYQYFIYFK(COCH2)Y; thioether 2-19 (inferred)) [compound 215]	A (0.7 or more)
216 (YCEENYLSPEQYQYFIYFK(COCH2)Y; thioether 2-19 (inferred)) [compound 216]	A (0.7 or more)
217 (YCEENYLTPEQYQYFIYFK(COCH2)Y; thioether 2-19 (inferred)) [compound 217]	A (0.7 or more)
218 (YCEENYLEPEQYQYFIYFK(COCH2)Y; thioether 2-19 (inferred)) [compound 218]	A (0.7 or more)
219 (YCEENYLRPEQYQYFIYFK(COCH2)Y; thioether 2-19 (inferred)) [compound 219]	C (0.1 or more and less than 0.5)
220 (YCEENYLHPEQYQYFIYFK(COCH2)Y; thioether 2-19 (inferred)) [compound 220]	A (0.7 or more)
221 (YCEENYLDGEQYQYFIYFK(COCH2)Y; thioether 2-19 (inferred)) [compound 221]	A (0.7 or more)
222 (YCEENYLDLEQYQYFIYFK(COCH2)Y; thioether 2-19 (inferred)) [compound 222]	A (0.7 or more)
223 (YCEENYLDIEQYQYFIYFK(COCH2)Y; thioether 2-19 (inferred)) [compound 223]	A (0.7 or more)
224 (YCEENYLDVEQYQYFIYFK(COCH2)Y; thioether 2-19 (inferred)) [compound 224]	A (0.7 or more)
225 (YCEENYLDFEQYQYFIYFK(COCH2)Y; thioether 2-19 (inferred)) [compound 225]	A (0.7 or more)
226 (YCEENYLDYEQYQYFIYFK(COCH2)Y; thioether 2-19 (inferred)) [compound 226]	A (0.7 or more)
227 (YCEENYLDWEQYQYFIYFK(COCH2)Y; thioether 2-19 (inferred)) [compound 227]	A (0.7 or more)
